From patent US20160320391A1 (Genentech, published 2016)

How the values were obtained:
[1] = biological target: T1, purified recombinant soluble hamster (Cricetulus griseus) phospholipase B-like 2 (PLBL2), his-tagged (hamster (Cricetulus griseus)); assay: sandwich ELISA, 19C10 coated as capture antibody, PLBL2 standard titrated, detection with biotinylated 15G11 and streptavidin-HRP, OD 450 nm; the value describes the whole sandwich
T1 construct: Transiently expressed in CHO-K1 cells and purified from the supernatant; In the rabbit serum assay the protein was biotinylated; also called PLB2; PLBD2; not shown: histidine (his) tag added
T1 chain: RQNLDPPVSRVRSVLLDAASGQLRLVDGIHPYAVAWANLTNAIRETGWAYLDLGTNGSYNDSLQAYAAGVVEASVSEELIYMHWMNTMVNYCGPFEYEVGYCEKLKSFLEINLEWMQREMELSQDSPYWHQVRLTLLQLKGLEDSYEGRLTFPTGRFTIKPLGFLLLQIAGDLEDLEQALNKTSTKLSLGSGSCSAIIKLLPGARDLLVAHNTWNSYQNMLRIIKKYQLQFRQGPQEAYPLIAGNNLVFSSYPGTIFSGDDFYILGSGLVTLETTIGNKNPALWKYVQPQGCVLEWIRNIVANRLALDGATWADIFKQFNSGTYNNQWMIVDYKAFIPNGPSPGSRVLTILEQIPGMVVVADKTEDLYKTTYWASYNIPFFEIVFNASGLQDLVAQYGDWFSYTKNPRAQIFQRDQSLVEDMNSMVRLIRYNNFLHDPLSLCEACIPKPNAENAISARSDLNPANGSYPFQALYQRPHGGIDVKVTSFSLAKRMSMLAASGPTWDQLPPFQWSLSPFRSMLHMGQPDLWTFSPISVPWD
Description: (§1) An ELISA assay to detect and quantify the CHOP impurity, PLBL2, in recombinant polypeptide samples, such as recombinant antibody or immunoadhesin preparations, was developed. The procedure is as follows. Murine monoclonal antibody 19C10 was coated onto a half area 96-well microtiter plate at a concentration of 0.5 μg/mL in carbonate buffer (0.05M sodium carbonate, pH 9.6), overnight at 2-8° C. After coating, the plate was blocked with Blocking Buffer (0.15M NaCl, 0.1M sodium phosphate, 0.1% fish gelatin, 0.05% polysorbate 20, 0.05% Proclin® 300 [Sigma-Aldrich]; also referred to as Assay Diluent) to prevent non-specific sticking of proteins. […]
(§2) After a 2 hr. incubation step with biotinylated 15G11 at room temperature, Streptavidin HRP (1:200,000 dilution in Assay Diluent) was added to the microtiter plate wells. After a final wash step with Wash Buffer (described above), color was developed (for PLBL2 quantification) by adding a solution of TMB (50 μl/well) (SUREBLUE RESERVE™ from KPL, Kirkegaard & Perry Laboratories, Inc., Gaithersburg, Md., cat no. 53-00-03) followed by incubation at room temperature for 10-20 minutes. […]

[2] = biological target: T1, purified recombinant soluble hamster …; assay: sandwich ELISA, biotinylated 15G11 as detection antibody on PLBL2 standard captured by coated 19C10, streptavidin-HRP, OD 450 nm; the value describes the whole sandwich
Description: as §1, §2

B1: 19C10 (recombinant murine monoclonal anti-hamster PLBL2 antibody) (antibody, mouse IgG1, kappa, V domains shown)
VH: EVQLQESGPCLVKPSQTLSLTCSVTGDSITSGYWNWIRKFPGNKLESMGYISYSGSTYYNPSLKSRISITRDTSKNQYYLQLNSVTTEDTATYYCARIASWITTYFDYWGQGTTLTVSS
VL: DIVMTQSPAILSVSPGERVSFSCRASQSIGTSIHWYQQRRNGSPRLLIKYASESISGIPSRFSGSGSGTDFILSINSVESEDIADYYCQQSNSWPYTFGGGTKLELKR
notes: Mouse IgG1, kappa, expressed transiently in 293 or CHO cells; also called capture antibody; coat antibody
Question: With B1 as the binder, how does the “EC50 (read off the curve)” value [1] read?
Answer: ~10 ng/mL

B2: 15G11 anti-PLBL2 murine monoclonal antibody conjugated to biotin (antibody, mouse IgG1, kappa, V domains shown)
VH: EVKLEESGGGLVQPGGSTKLSCAASGFTFSDAWMDWVRQCPEKGLEWVAEISSKANNRATYYAESVKGRFTISRDDSKSCVYLQMNSLRAEDTGIYYCTRRGYTMDYWGQGTSVTVSS
VL: DIVMTQSQKFMSTSVGDRVSVTCKASQNVDTNVAWYQQKPGQSPKALIFSASYRFSGVPDRFTGSGSGTDFTLTISNVQSEDLAEYFCQQYNNFPFTFGSGTKLELKR
modifications: biotin conjugated with E-Z Link NHS-Biotin; sites not stated
notes: Mouse IgG1, kappa, biotinylated; Used as the detection antibody of the monoclonal PLBL2 ELISA; also called biotinylated 15G11; detection antibody
Question: With B2 as the binder, how does the “EC50 (read off the curve)” value [2] read?
Answer: ~10 ng/mL
